pKd: −log10 of the molar value.

The target in this experiment is Human FcRn (human) (UniProt P55899). In words: BLI; human FcRn immobilised, antibody or ADC as analyte; performed as previously reported (refs. 35, 36); no conditions told. For orientation: BLI is a label-free optical method that tracks binding on a fibre tip over time.
Chain of UniProt P55899 (P55899 24-365): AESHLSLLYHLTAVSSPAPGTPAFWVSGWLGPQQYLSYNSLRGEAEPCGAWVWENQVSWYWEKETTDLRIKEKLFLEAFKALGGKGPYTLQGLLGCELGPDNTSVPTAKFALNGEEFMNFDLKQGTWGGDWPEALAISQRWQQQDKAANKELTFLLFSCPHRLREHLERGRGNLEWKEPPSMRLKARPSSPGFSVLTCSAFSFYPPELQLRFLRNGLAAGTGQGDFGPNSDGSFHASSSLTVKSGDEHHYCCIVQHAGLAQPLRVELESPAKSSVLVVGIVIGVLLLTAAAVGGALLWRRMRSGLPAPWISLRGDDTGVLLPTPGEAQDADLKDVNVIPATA
Regarding Trastuzumab-K288-MMAE (5b) (antibody), the pKd (usually the negative decadic logarithm of the Kd, by convention in mol/L) is 8.14; the koff (usually a measure of how fast the partners let go of each other) was determined as 0.00383 s⁻¹; the kon (commonly the second-order rate constant of association) was 530000 M⁻¹ s⁻¹.

Regarding “Trastuzumab (Herceptin), human IgG1 (antibody)”, the pKd is 8.25, the koff amounted to 0.00377 s⁻¹ and the kon turned out to be 667000 M⁻¹ s⁻¹.

Trastuzumab-K248-MMAE (5a) (antibody) had a pKd of 8.25, a koff of 0.000848 s⁻¹ and a kon of 152000 M⁻¹ s⁻¹.

Source of the values: publication PMC10119932.
